As a reminder, the Km is the concentration of substrate that gives half-maximal velocity. As a reminder, the kcat is the number of substrate molecules converted per active site and unit of time at saturation.

The target of one data set is T1, DPP-IV (Homo sapiens, UniProt P27487).
T1 construct: The ectodomain of DPP-IV, residues 31-766 (sDPP-IV), was amplified by PCR using a cDNA; made in house; host or cells: Pichia pastoris strain GS115 (pPICZα-A vector)
Nature of the data set: Biacore surface plasmon resonance binding to immobilized DPP-IV. To be noted: ADA from bovine. How it is done: DPP-IV was immobilized on a CM5 surface plasmon resonance sensor (Biacore) using standard amide coupling chemistry. The organic adlayer on this sensor type consists of carboxymethylated dextran (MW≈100 kDA). After activation of the carboxylic acid groups using carbodiimide/N-hydroxysuccinimide solutions, the surface was contacted with a DPP-IV solution (80 μl) containing≈100 μg/ml protein in acetate buffer (10 mM, pH 4.5). […] The surfaces of two flow cells were modified with protein. […] Hepes buffer (0.01 M Hepes, pH 7.4, 0.15 M NaCl, 3 mM EDTA, 0.005% polysorbate 20 (v/v)) was used as the running buffer. Diprotin-A was disolved directly in this buffer. […] The final inhibitor solution contained less than 0.1% DMSO. Binding experiments were carried out by contacting the immobilized protein surfaces with inhibitor solutions of varying concentrations at a flow rate of 10 μl/min or 30 μl/min. After each contact with inhibitor, the protein surfaces were regenerated by extensively washing with running buffer.

The target in data set [1] is T2, sDPP-IV (soluble extracellular domain of human dipeptidyl peptidase IV) (Homo sapiens, UniProt P27487).
T2 construct: The ectodomain of DPP-IV, residues 31-766 (sDPP-IV), was amplified by PCR using a cDNA; made in house; host or cells: Pichia pastoris strain GS115 (pPICZα-A vector)
Nature of the data set: DPP-IV activity assay, fluorescence of products from Ala-Pro-7-amido-4-trifluoromethylcoumarin. It is filed as biochemical. To be noted: Lineweaver-Burk plots; 50 mM Tris/HCl pH 7.8, 100 mM NaCl, 0.1 mg/ml BSA, 0.5% dimethylformamide; 25° C. The protocol:
A 20 mM stock solution in 10% DMF is stored at −20° C. until use. […] DPP-IV activity assays were performed in 96 well plates in a total assay volume of 100 μl. The assay buffer consists of S-Buffer containing 0.1 mg/ml BSA. […] Initial rate constants are calculated by best fit linear regression.

B1: ADA: adenosine deaminase, Sigma Type IV, from calf intestinal mucosa (bovine) (protein)
chain: AQTPAFNKPKVELHVHLDGAIKPETILYYGRKRGIALPADTPEELQNIIGMDKPLSLPEFLAKFDYYMPAIAGCREAVKRIAYEFVEMKAKDGVVYVEVRYSPHLLANSKVEPIPWNQAEGDLTPDEVVSLVNQGLQEGERDFGVKVRSILCCMRHQPSWSSEVVELCKKYREQTVVAIDLAGDETIEGSSLFPGHVKAYAEAVKSGVHRTVHAGEVGSANVVKEAVDTLKTERLGHGYHTLEDATLYNRLRQENMHFEVCPWSSYLTGAWKPDTEHPVVRFKNDQVNYSLNTDDPLIFKSTLDTDYQMTKNEMGFTEEEFKRLNINAAKSSFLPEDEKKELLDLLYKAYGMPSPA
With B1, in the data set with DPP-IV, the “koff (dissociation rate) of ADA” value is 8.75e-05 s⁻¹ and the “kon of ADA” value is 29800 M⁻¹ s⁻¹.

B2: sDPP-IVdeglycos: enzymatically deglycosylated sDPP-IV (EndoF1-GST treated) (protein)
chain: GTDDATADSRKTYTLTDYLKNTYRLKLYSLRWISDHEYLYKQENNILVFNAEYGNSSVFLENSTFDEFGHSINDYSISPDGQFILLEYNYVKQWRHSYTASYDIYDLNKRQLITEERIPNNTQWVTWSPVGHKLAYVWNNDIYVKIEPNLPSYRITWTGKEDIIYNGITDWVYEEEVFSAYSALWWSPNGTFLAYAQFNDTEVPLIEYSFYSDESLQYPKTVRVPYPKAGAVNPTVKFFVVNTDSLSSVTNATSIQITAPASMLIGDHYLCDVTWATQERISLQWLRRIQNYSVMDICDYDESSGRWNCLVARQHIEMSTTGWVGRFRPSEPHFTLDGNSFYKIISNEEGYRHICYFQIDKKDCTFITKGTWEVIGIEALTSDYLYYISNEYKGMPGGRNLYKIQLSDYTKVTCLSCELNPERCQYYSVSFSKEAKYYQLRCSGPGLPLYTLHSSVNDKGLRVLEDNSALDKMLQNVQMPSKKLDFIILNETKFWYQMILPPHFDKSKKYPLLLDVYAGPCSQKADTVFRLNWATYLASTENIIVASFDGRGSGYQGDKIMHAINRRLGTFEVEDQIEAARQFSKMGFVDNKRIAIWGWSYGGYVTSMVLGSGSGVFKCGIAVAPVSRWEYYDSVYTERYMGLPTPEDNLDHYRNSTVMSRAENFKQVEYLLIHGTADDNVHFQQSAQISKALVDVGVDFQAMWYTDEDHGIASSTAHQHIYTHMSHFIKQCFSLP
With B2, in data set [1], the Km worked out at 17.2 µM and the catalytic constant (kcat) was 43.1 s⁻¹.

B3: sDPP-IVglycos: glycosylated sDPP-IV (protein)
chain: GTDDATADSRKTYTLTDYLKNTYRLKLYSLRWISDHEYLYKQENNILVFNAEYGNSSVFLENSTFDEFGHSINDYSISPDGQFILLEYNYVKQWRHSYTASYDIYDLNKRQLITEERIPNNTQWVTWSPVGHKLAYVWNNDIYVKIEPNLPSYRITWTGKEDIIYNGITDWVYEEEVFSAYSALWWSPNGTFLAYAQFNDTEVPLIEYSFYSDESLQYPKTVRVPYPKAGAVNPTVKFFVVNTDSLSSVTNATSIQITAPASMLIGDHYLCDVTWATQERISLQWLRRIQNYSVMDICDYDESSGRWNCLVARQHIEMSTTGWVGRFRPSEPHFTLDGNSFYKIISNEEGYRHICYFQIDKKDCTFITKGTWEVIGIEALTSDYLYYISNEYKGMPGGRNLYKIQLSDYTKVTCLSCELNPERCQYYSVSFSKEAKYYQLRCSGPGLPLYTLHSSVNDKGLRVLEDNSALDKMLQNVQMPSKKLDFIILNETKFWYQMILPPHFDKSKKYPLLLDVYAGPCSQKADTVFRLNWATYLASTENIIVASFDGRGSGYQGDKIMHAINRRLGTFEVEDQIEAARQFSKMGFVDNKRIAIWGWSYGGYVTSMVLGSGSGVFKCGIAVAPVSRWEYYDSVYTERYMGLPTPEDNLDHYRNSTVMSRAENFKQVEYLLIHGTADDNVHFQQSAQISKALVDVGVDFQAMWYTDEDHGIASSTAHQHIYTHMSHFIKQCFSLP
Take B3: in data set [1], the Michaelis constant (Km) was found to be 15.5 µM and the catalytic constant (kcat) was found to be 37.3 s⁻¹.
